{"source": "paper PMC3031960", "about": "(Journal of immunology (Baltimore, Md. : 1950), 2010)", "molecular_target": "T1, pJAK2(1001–1013)", "T1 peptide": "{K(Palm)}-LPQDKE[pY]YKVKEP", "test": "ELISA", "note": "Numbered stars: 1 amine (or outer) side, 2 acyl side, 3 side chain; on linkers, the order of the positions; unused ones are H or OH. Square brackets hold non-standard residues; d marks the D form. Ends that are not written are not given here. K(Palm) = CCCCCCCCCCCCCCCC(=O)NCCCC[C@H](N[*:1])C(=O)[*:2]; pY = N[C@@H](Cc1ccc(OP(=O)(O)O)cc1)C(=O)O"}
{"binder": "{K(Palm)}-DTHFRTFRSHSDYRRI", "note": "[SOCS1-KIR]", "values": [{"measurement": "binding result", "value": "binds"}]}
{"binder": "{K(Palm)}-LRLKTFSSKSEYQLVV", "note": "[SOCS3-KIR]", "values": [{"measurement": "binding result", "value": "binds"}]}
